T1: recombinant human CXCL1 protein (human, UniProt P09341 35-107)
T1 sequence: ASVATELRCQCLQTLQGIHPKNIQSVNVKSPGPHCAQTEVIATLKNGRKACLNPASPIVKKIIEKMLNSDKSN

T2: mouse CXCL1 (mouse, UniProt P12850 25-96, limits assumed)
T2 sequence (looked up): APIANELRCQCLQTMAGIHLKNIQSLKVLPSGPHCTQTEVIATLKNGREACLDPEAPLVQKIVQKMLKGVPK

T3: rat CXCL1 (rat, UniProt P14095 25-96, limits assumed)
T3 sequence (looked up): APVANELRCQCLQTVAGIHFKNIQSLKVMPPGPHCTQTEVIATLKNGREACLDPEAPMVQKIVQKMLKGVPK

B1: anti-CXCL1 neutralizing monoclonal mouse antibody (HL2401) (antibody, V domains shown)
VH: EVKLVESGAELVKPGASVKLSCKASGYTFTSYYIYWVKQRPGQGLEWIGEIDPSHGGPTFNEKFKNKATLTVDKSSSTAYMQLSSLTSDDSAVYYCTRESGTGAMDYWGQGTTLTVSS
VL: DIVLTQSPASLAVSLGQRATISCKASQSVDYDGDSYVNWYQQKPGQPPKLLIYAASNLESRIPARFSGSGSGTDFTLNILPVEEDDGATYYCQQSSEDPWTFGGGTKLEIKR
notes: Mouse IgG from hybridoma clone HL2401, purified on protein G; also called CXCL1 mAb (HL2401); CXCL1 monoclonal antibody (HL2401)
B2: HUM2401-ScFv_1 (humanized version 2) (scFv)
scFv: QVQLVESGGGLVQPGGSLRLSCKASGYTFTSYYIYWVRQAPGKGLEWIGEIDPSHGGPTFNEKFKNRFTISRDNSKNTLYLQMNSLRAEDTAVYYCTRESGTGAMDYWGQGTLVTVSSGGGGSGGGGSGGGARGGGGSDIQMTQSPSSLSASVGDRATISCKASQSVDYDGDSYVNWYQQKPGKAPKLLIYAASNLESGIPSRFSGSGSGTDFTLTISSLQPEDFATYYCQQSSEDPWTFGQGTKVEIKR
notes: Detected through a c-Myc tag; also called HumH2401scFv; Hum HL2401_scFv

Columns and labels:
[1] = biological target: T1, recombinant human CXCL1 protein; test: apparent affinity-binding constant, in PBS; method not stated (FIG. 1B); in PBS
[2] = biological target: T2, mouse CXCL1; test: Western blot: recombinant CXCL1 loaded at 10, 20 and 30 ng, probed with HL2401
[3] = biological target: T3, rat CXCL1; test: as above
[4] = biological target: T1, recombinant human CXCL1 protein; test: apparent affinity-binding constant, in serum 1:4 dilution; method not stated (FIG. 1B); serum, 1:4 dilution
[5] = biological target: T1, recombinant human CXCL1 protein; test: apparent affinity-binding constant, in serum 1:40 dilution; method not stated (FIG. 1B); serum, 1:40 dilution
[6] = biological target: T1, recombinant human CXCL1 protein; test: ELISA on coated human CXCL1 against coated BSA, scFv at 10 and 2 ug/mL, anti-Myc HRP, TMB
Method: The human CxCL1 protein was coated onto 96-well, 30 ng for well at 4° C. overnight. The plate was blocked by 3% skim milk in PBS 2 h at room temperature. The plate was washed 3 times with PBST and applied anti-human CXCL1 humanized version scFv antibodies at different dilution concentration. The anti-Myc mouse monoclonal antibody with HRP conjugate antibody was applied and developed with TMB solution.

Binder | Kd [1] | binding result [2] | binding result [3] | Kd [4] | Kd [5] | binding result [6]
B1 | 0.176 mg/L | no binding (tested: 30 ng) | no binding (tested: 30 ng) | 0.387 mg/L | 0.252 mg/L | 
B2 |  |  |  |  |  | binds

Source: patent publication US20220169714A1 (published 2022)
